Test system: N=C(N)NCCC[C@H](NC(=O)[C@H](Cc1ccccc1)NC(=O)OCc1ccccc1)C(=O)Nc1ccc([N+](=O)[O-])cc1
Test: purified protein
Settings: proenzyme heat-shocked 10 min at 56°C, then activated, assay at room temperature

EP-B2 (Hordeum vulgare), sequence (chain, as listed by the source): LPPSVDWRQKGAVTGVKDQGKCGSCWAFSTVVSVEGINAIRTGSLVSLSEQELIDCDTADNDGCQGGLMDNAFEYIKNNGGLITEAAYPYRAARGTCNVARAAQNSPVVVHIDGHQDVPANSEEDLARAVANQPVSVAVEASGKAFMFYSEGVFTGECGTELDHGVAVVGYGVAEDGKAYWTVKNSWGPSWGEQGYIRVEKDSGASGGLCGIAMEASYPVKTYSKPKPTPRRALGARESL
EP-B2 (Hordeum vulgare; K311A), sequence (chain, as listed by the source K311A): as the sequence (chain, as listed by the source) above, with K178A counted along it

EP-B2 (Hordeum vulgare)
Km: 530.0 µM
Vmax: 0.142 µM/min

EP-B2 (Hordeum vulgare; K311A)
Km (variant M3): 1188 µM
Vmax (variant M3): 0.236 µM/min

Source: publication PMC7040222
